Measured values from patent US20250382344A1, “Soluble GLP1/GIP/NPY2 Receptor Triple Agonists” (Boehringer Ingelheim International GmH, priority 2024, published 2025).
Numbering of substitutions follows the chain as printed. *1 amine or outer side, *2 acyl side, *3 side chain or, on linkers, in order; H or OH if unused. Where no end group is shown, it is not given here. Side-chain parts run from the residue outwards. [ ]: non-standard residue; d: D form. The star is where a group is joined. C20 diacid = O=C(O)CCCCCCCCCCCCCCCCCCC(=O)*; C18 diacid = O=C(O)CCCCCCCCCCCCCCCCC(=O)*; γGlu = O=C(O)[C@H](CCC(=O)[*:2])N[*:1]; εLys = N[C@@H](CCCCN[*:1])C(=O)[*:2]; Aib = CC(C)(N)C(=O)O

T1: human GIP receptor (human, UniProt P48546 22-466)
T1 sequence (looked up): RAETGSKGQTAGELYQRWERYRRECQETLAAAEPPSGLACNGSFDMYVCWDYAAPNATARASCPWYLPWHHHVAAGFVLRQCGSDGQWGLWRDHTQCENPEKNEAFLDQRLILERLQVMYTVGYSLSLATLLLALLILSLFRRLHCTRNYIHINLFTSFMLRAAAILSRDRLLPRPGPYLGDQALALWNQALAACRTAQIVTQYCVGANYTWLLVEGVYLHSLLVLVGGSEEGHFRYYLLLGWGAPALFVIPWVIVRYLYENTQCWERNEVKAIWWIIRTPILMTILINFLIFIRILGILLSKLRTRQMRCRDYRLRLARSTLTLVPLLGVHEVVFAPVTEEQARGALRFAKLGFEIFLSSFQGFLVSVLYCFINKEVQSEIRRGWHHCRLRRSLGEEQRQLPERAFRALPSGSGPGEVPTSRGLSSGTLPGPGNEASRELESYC

T2: human neuropeptide Y2 receptor (human, UniProt P49146 1-381)
T2 sequence (looked up): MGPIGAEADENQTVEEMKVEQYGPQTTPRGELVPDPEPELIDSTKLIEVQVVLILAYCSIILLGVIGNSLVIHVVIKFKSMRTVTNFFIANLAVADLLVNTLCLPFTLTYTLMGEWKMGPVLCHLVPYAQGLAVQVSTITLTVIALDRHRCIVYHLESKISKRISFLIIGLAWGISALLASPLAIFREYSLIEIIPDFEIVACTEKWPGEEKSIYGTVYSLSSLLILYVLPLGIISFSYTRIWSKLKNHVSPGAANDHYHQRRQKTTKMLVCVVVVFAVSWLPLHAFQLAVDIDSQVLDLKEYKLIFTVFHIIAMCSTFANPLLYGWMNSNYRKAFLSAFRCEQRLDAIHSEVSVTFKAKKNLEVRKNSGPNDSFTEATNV

T3: human GIP receptor (human, UniProt P48546 22-466)
T3 sequence (looked up): T1 sequence (looked up)

T4: human neuropeptide Y2 receptor (human, UniProt P49146 1-381)
T4 sequence (looked up): T2 sequence (looked up)

B1: Compound 70 (peptide)
peptide: Y[Aib]EGTFTSDYSI[Aib]LDQQAQ[Aib]AFVRHLINK([εLys-γGlu-γGlu-γGlu-γGlu-γGlu-C18 diacid])[Aib]TRQRY-NH2
B2: Compound 3 (peptide)
peptide: Y[Aib]EGTFTSDYSI[Aib]LEKQAQ[Aib]AFVRHLINK([γGlu-γGlu-γGlu-γGlu-γGlu-γGlu-C20 diacid])[Aib]TRQRY-NH2
B3: Compound 29 (peptide)
peptide: Y[Aib]EGTFTSDYSIALEKQAQ[Aib]AFVRHLINK([γGlu-γGlu-γGlu-γGlu-γGlu-γGlu-C20 diacid])[Aib]TRQRY-NH2
B4: Compound 51 (peptide)
peptide: Y[Aib]EGTFTSDLSI[Aib]LEKQAQ[Aib]AFVRHLINK([γGlu-γGlu-γGlu-γGlu-γGlu-γGlu-C20 diacid])[Aib]TRQRY-NH2
B5: Compound 25 (peptide)
peptide: Y[Aib]EGTFTSDYSI[Aib]LEEEAQ[Aib]AFVRHLINK([γGlu-γGlu-γGlu-γGlu-C18 diacid])[Aib]TRQRY-NH2
B6: Compound 59 (peptide)
peptide: Y[Aib]EGTFTSDYSI[Aib]LEKQAQ[Aib]AFVRHLINK([εLys-γGlu-γGlu-γGlu-γGlu-γGlu-C20 diacid])[Aib]TRQRY-NH2
B7: Compound 21 (peptide)
peptide: YXEGTFTSDLSIXLEKQAQXAFIRHLINKXTRQRY
modifications: Aib at 2, 13, 20, 30; Lys29 epsilon-amino acylated with C20DA-gGlu-gGlu-gGlu-gGlu-gGlu-gGlu-eLys; C-terminal amide
B8: Compound 41 (peptide)
peptide: B7 peptide with L10Y, I23V, X30I
modifications: Aib at 2, 13, 20; Lys29 epsilon-amino acylated with C18DA-gGlu-gGlu-gGlu-gGlu-gGlu; C-terminal amide
B9: Compound 22 (peptide)
peptide: B7 peptide with L10Y, E15D
modifications: Aib at 2, 20, 30; aMeL at 13; Lys29 epsilon-amino acylated with C20DA-gGlu-gGlu-gGlu-gGlu-gGlu-gGlu-eLys; C-terminal amide
B10: Compound 45 (peptide)
peptide: B7 peptide with L10Y, A21E, I23V, X30L
modifications: Aib at 2, 13, 20; Lys29 epsilon-amino acylated with C18DA-gGlu-gGlu-gGlu-gGlu-gGlu-AHX; C-terminal amide
B11: Compound 67 (peptide)
peptide: B7 peptide with L10Y, E15D, I23V
modifications: Aib at 2, 20, 30; aMeL at 13; Lys29 epsilon-amino acylated with C18DA-gGlu-gGlu-gGlu-gGlu-gGlu-gGlu-eLys; C-terminal amide
B12: Compound 33 (peptide)
peptide: B7 peptide with L10Y, E15D, Q17I, I23V
modifications: Aib at 2, 13, 20, 30; Lys29 epsilon-amino acylated with C18DA-gGlu-gGlu-gGlu-gGlu-gGlu-gGlu-eLys; C-terminal amide
B13: Compound 27 (peptide)
peptide: B7 peptide with L10Y, I23V, X30L
modifications: Aib at 2, 13, 20; Lys29 epsilon-amino acylated with C20DA-gGlu-gGlu-gGlu-gGlu-gGlu-gGlu-eLys; C-terminal amide
B14: Compound 42 (peptide)
peptide: B7 peptide with L10Y, K16Q, I23V
modifications: Aib at 2, 13, 20, 30; Lys29 epsilon-amino acylated with C18DA-gGlu-gGlu-gGlu-gGlu-gGlu; C-terminal amide
B15: Compound 28 (peptide)
peptide: B7 peptide with L10Y, Q17E, I23V
modifications: Aib at 2, 13, 20, 30; Lys29 epsilon-amino acylated with C20DA-gGlu-gGlu-gGlu-gGlu-gGlu-gGlu-eLys; C-terminal amide
B16: Compound 85 (peptide)
peptide: B7 peptide with T5A, L10Y, I23V
modifications: Aib at 2, 13, 20, 30; Lys29 epsilon-amino acylated with C18DA-gGlu-gGlu-gGlu-gGlu-gGlu-gGlu-eLys; C-terminal amide
B17: Compound 72 (peptide)
peptide: B7 peptide with L10Y, I23V
modifications: Aib at 2, 13, 20, 30; ArgMe at 34; Lys29 epsilon-amino acylated with C18DA-gGlu-gGlu-gGlu-gGlu-gGlu-gGlu-eLys; C-terminal amide
B18: Compound 37 (peptide)
peptide: B7 peptide with L10Y, I23L
modifications: Aib at 2, 13, 20, 30; Lys29 epsilon-amino acylated with C18DA-gGlu-gGlu-gGlu-gGlu-gGlu-gGlu-eLys; C-terminal amide
B19: Compound 36 (peptide)
peptide: B7 peptide with L10Y, A18E, I23V
modifications: Aib at 2, 13, 20, 30; Lys29 epsilon-amino acylated with C18DA-gGlu-gGlu-gGlu-gGlu-gGlu-gGlu-eLys; C-terminal amide
B20: Compound 7 (peptide)
peptide: B7 peptide with L10Y, I23V, X30L
modifications: Aib at 2, 13, 20; Lys29 epsilon-amino acylated with C18DA-gGlu-gGlu-gGlu-gGlu-gGlu-OEG; C-terminal amide
B21: Compound 54 (peptide)
peptide: B7 peptide with T5E, L10Y, I23V
modifications: Aib at 2, 13, 20, 30; Lys29 epsilon-amino acylated with C18DA-gGlu-gGlu-gGlu-gGlu-gGlu-gGlu-eLys; C-terminal amide
B22: Compound 56 (peptide)
peptide: Y[Aib]EGTFTSDYSI[Aib]LEKQAQ[Aib]EFVRHLINK([γGlu-γGlu-γGlu-γGlu-γGlu-γGlu-C18 diacid])[Aib]TRQRY-NH2
B23: Compound 46 (peptide)
peptide: Y[Aib]EGTFTSDYSI[Aib]LEKQAQ[Aib]AFVRHLINK([γDab-γGlu-γGlu-γGlu-γGlu-γGlu-γGlu-C20 diacid])[Aib]TRQRY-NH2
B24: Compound 48 (peptide)
peptide: Y[Aib]EGTFTSDYSI[Aib]LEEQAQ[Aib]AFVRHLINK([εLys-γGlu-γGlu-γGlu-γGlu-γGlu-C18 diacid])[Aib]TRQRY-NH2
B25: Compound 77 (peptide)
peptide: Y[Aib]EGTFTSDYSI[Aib]LEKQAQ[Aib]AFVRHLINK([γGlu-γGlu-γGlu-γGlu-C18 diacid])[Aib]TRQRY-NH2
B26: Compound 52 (peptide)
peptide: Y[Aib]EGTFTSDYSI[Aib]LEKQAQ[Aib]AFVRHLINK([γGlu-γGlu-εLys-γGlu-γGlu-γGlu-γGlu-C20 diacid])[Aib]TRQRY-NH2
B27: Compound 156 (peptide)
peptide: B7 peptide with L10Y, I12A, I23V
modifications: Aib at 2, 13, 20, 30; Lys29 epsilon-amino: C18DA-gGlu-gGlu-gGlu-gGlu-gGlu-gGlu-eLys; C-terminal amide

Target: human GLP-1 receptor (human, UniProt P43220 24-463)
Experiment: cell-based or functional assay

Binder	EC50, CreLuc reporter, 0.5% hP [nM]	EC50, CreLuc reporter, 100% hP [nM]
B1	0.2	–
B2	3	13.9
B3	5.5	33
B4	4.5	16.3
B5	0.7	2
B6	–	16.7
B7	4.8	13.9
B8	0.9	5
B9	0.2	0.6
B10	0.5	–
B11	0.1	0.6
B12	0.1	1
B13	–	20.8
B14	0.9	14.5
B15	8	14.8
B16	10.4	14.5
B17	0.6	–
B18	5.8	9.1
B19	–	16.9
B20	–	7.9
B21	3.4	14.4
B22	–	7.1
B23	–	5.3
B24	0.5	–
B25	–	1.8
B26	3.3	–

Target: T1, human GIP receptor
Experiment: cell-based or functional assay

Binder	EC50, CreLuc reporter, 0.5% hP [nM]	EC50, CreLuc reporter, 100% hP [nM]
B2	0.7	–
B4	0.5	13.8
B7	0.2	5.6
B8	0.3	7.1
B9	0.1	–
B10	0.3	19.6
B11	0.1	1.7
B12	0.7	18.7
B13	0.6	16.3
B15	19.3	208
B18	–	15.5
B19	8.8	41.4
B22	0.4	19.3
B23	0.8	7.2

Target: T2, human neuropeptide Y2 receptor
Experiment: cell-based or functional assay

Binder	EC50, CreLuc reporter, 0.5% hP [nM]	EC50, CreLuc reporter, 100% hP [nM]
B1	12.8	119
B2	37.9	147
B3	41.3	180
B5	89.2	437
B6	5.7	–
B7	6.5	111
B8	49.2	71.3
B9	8.8	72
B10	19.8	224
B11	18.1	112
B13	–	69.1
B14	81.4	704
B15	24	297
B16	–	16.2
B18	11.9	41.3
B19	30.1	95.2
B20	12.4	80.6
B21	–	38.3
B23	28.4	70.5
B24	11.6	77.2
B26	–	152

Target: human GLP-1 receptor (human, UniProt P43220 24-463)
Experiment: cell-based or functional assay
Remark: another data set of the same source

Binder	EC50, CreLuc reporter, 0.5% hP [nM]	EC50, CreLuc reporter, 100% hP [nM]
B27	7	33.1

Target: T3, human GIP receptor
Experiment: cell-based or functional assay

Binder	EC50, CreLuc reporter, 0.5% hP [nM]	EC50, CreLuc reporter, 100% hP [nM]
B27	0.8	14.8

Target: T4, human neuropeptide Y2 receptor
Experiment: cell-based or functional assay

Binder	EC50, CreLuc reporter, 0.5% hP [nM]	EC50, CreLuc reporter, 100% hP [nM]
B27	16.3	44.1
